Experimental data from US20200054723A1 (ALLAKOS, published 2020).
Positions count from the first letter of the chain named. Several values for one entry are separate records, joined by “and”; a condition that tells them apart may be missing. Equal entries are not always repeated.

Key:
[1] = target: T1, human Siglec-8 on human cells (eosinophils, mast cells) (human, UniProt Q9NYZ4 17-499); test: cell-based or functional assay
[2] = target: T1, human Siglec-8 on human cells …; test: cell-based or functional assay; remark: listed apart in the source
[3] = target: T2, baboon Siglec-8 Domains 1, 2, and 3 Fusion Protein (olive baboon (Papio anubis)); test: ELISA, coated fusion protein
T2 construct: fused to human Ig-Fc
Description: (§1) To identify the region comprising the epitope for anti-Siglec-8 antibodies, fusion proteins containing each of the Siglec-8 extracellular domains fused to human Ig-Fc were expressed and purified from CHO cells.
(§2) For the antibody binding assays, ELISA plates (MaxiSorp; Nunc) were coated overnight at 4° C. with fusion protein at 0.2 μg/ml and blocked for 1 hour at room temperature with 2% BSA in PBS. Antibodies at 1 μg/ml were added and the plates were incubated for 2 hours at room temperature. After washing the plates, horseradish peroxidase conjugated secondary antibody was added and the plates were incubated for 1 hour. Secondary antibodies were anti-human H+L HRP (Jackson ImmunoResearch, Catalog Number 709-035-149) for humanized antibodies or anti-mouse H+L HRP (Jackson ImmunoResearch, Catalog Number 715-035-151) for mouse antibodies. The plates were developed with TMB Substrate (Sigma, Catalog Number T0440-1L).

[4] = target: T3, Dimeric Siglec-8 (human Siglec-8 ECD protein) (human, UniProt Q9NYZ4 17-363); test: SPR (Biacore), antibody captured, dimeric Siglec-8 as analyte, 1:1 global fit (avidity)
T3 construct: extracellular domain; Analyte of the Biacore avidity assay
Description: Antibody avidity determination was carried out by SPR analysis using a Biacore T200. Binding of human Siglec-8 ECD protein to mouse, chimeric and humanized anti-Siglec-8 antibodies was measured on a […]. The capture antibodies (goat-anti-human-Fc and goat-anti-mouse-Fc from Jackson Immunoresearch) were immobilized on a CM5 chip according to manufacturer's protocol (Biacore, GE). Flow-cell 1, 2 and 3 were immobilized with anti-human, and flow cell 4 with anti-mouse antibodies. The assay was conducted at 25° C., at a flow rate of […]. Assay buffer was 20 mM Tris-HCl pH 8.3, 150 mM Sodium Chloride, 0.05% Polysorbate 20, 10% glycerol, 0.1% BSA, made in ultrapure water. Dimeric Siglec-8 (impurities of monomeric and oligomeric Siglec-8 were removed by size-exclusion chromatography) was diluted in assay buffer from 15 nM to […] with 2× dilutions. Antibodies were captured to a change of approximately 120 RU. Six-minute high performance injections were conducted, followed by 120-minute dissociations. Flow cells were regenerated with 50 mM glycine pH 1.5. Results were double blanked with an empty reference cell and multiple assay buffer injections, and analyzed with 1:1 global fit parameters.

[5] = target: T4, recombinant human Siglec-8 extracellular domain (ECD) (human, UniProt Q9NYZ4 17-363); test: ELISA, coated Siglec-8 ECD
T4 construct: extracellular domain; also called Siglec-8 ECD; full Siglec-8 ECD

[6] = target: T5, human Siglec-8 Domain 1 Fusion Protein (human); test: ELISA, coated fusion protein, antibody at 1 µg/ml
T5 construct: fused to human Ig-Fc, expressed in CHO cells; also called Domain 1-Fc
Description: as §1, §2

[7] = target: T6, human Siglec-8 Domains 1 and 2 Fusion Protein (human); test: ELISA, coated fusion protein, antibody at 1 µg/ml
T6 construct: fused to human Ig-Fc, expressed in CHO cells; also called Domain 1 + 2-Fc
Description: as §1, §2

[8] = target: T7, human Siglec-8 Domains 1, 2, and 3 Fusion Protein (human); test: ELISA, coated fusion protein, antibody at 1 µg/ml
T7 construct: fused to human Ig-Fc, expressed in CHO cells; also called Domain 1 + 2 + 3-Fc
Description: as §1, §2

[9] = target: T2, baboon Siglec-8 Domains 1, 2, and 3 …; test: ELISA, baboon cross-reactivity
Description: as §1, §2

[10] = target: T7, human Siglec-8 Domains 1, 2, and 3 …; test: Western blot of reduced SDS-PAGE (linear epitope)
[11] = target: T5, human Siglec-8 Domain 1 Fusion Protein; test: ELISA, coated fusion protein
Description: as §1, §2

[12] = target: T4, recombinant human Siglec-8 …; test: ELISA, coated Siglec-8 ECD; remark: listed apart in the source
[13] = target: T8, Siglec-8-Fc tagged protein (human Siglec-8 extracellular domain fused to an immunoglobulin Fc region) (human); test: BLI (Octet Red 384), Siglec-8-Fc on anti-human capture sensors, Fab in solution
T8 construct: also called Siglec-8 Fc fusion protein
Description: Antibody affinity determination was also carried out by bio-layer interferometry (ForteBio). Binding of mouse, chimeric and humanized anti-Siglec-8 antibody Fab fragments to human Siglec-8 protein was measured on a ForteBio Octet Red 384. The assay was conducted at 25° C., at an RPM of 1000 in assay buffer. […] Fab fragments (antibodies were digested with Thermo-Pierce immobilized papain per manufacturer's specifications) were diluted in assay buffer from 50 nM to 1.56 nM with 2× dilutions. The Siglec-8-Fc tagged protein was immobilized on Anti-Human-Capture sensors at 100 nM in assay buffer for 3 min to a change in nm of approximately 1.2. Two-minute associations were conducted, followed by 10-minute dissociations. Results were blanked with an empty reference AHC sensor, and analyzed in ForteBio analysis software with 1:1 global fit parameters.

T2 sequence (chain, as listed by the source limits assumed): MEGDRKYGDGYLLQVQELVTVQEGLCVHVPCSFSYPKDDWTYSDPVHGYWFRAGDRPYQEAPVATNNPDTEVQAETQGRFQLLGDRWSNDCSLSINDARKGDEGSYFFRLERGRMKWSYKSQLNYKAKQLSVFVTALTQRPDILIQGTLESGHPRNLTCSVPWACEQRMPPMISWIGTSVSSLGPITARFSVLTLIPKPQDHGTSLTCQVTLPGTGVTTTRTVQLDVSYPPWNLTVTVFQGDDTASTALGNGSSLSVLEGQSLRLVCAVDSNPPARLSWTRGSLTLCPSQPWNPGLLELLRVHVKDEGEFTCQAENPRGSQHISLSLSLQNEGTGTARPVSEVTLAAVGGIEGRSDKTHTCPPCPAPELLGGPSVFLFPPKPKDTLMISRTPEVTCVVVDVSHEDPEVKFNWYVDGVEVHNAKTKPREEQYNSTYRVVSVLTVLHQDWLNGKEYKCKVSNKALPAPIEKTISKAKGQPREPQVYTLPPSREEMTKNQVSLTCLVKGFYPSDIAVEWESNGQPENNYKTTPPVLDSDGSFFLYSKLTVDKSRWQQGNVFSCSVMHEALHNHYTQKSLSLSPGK
T7 sequence (chain, as listed by the source limits assumed): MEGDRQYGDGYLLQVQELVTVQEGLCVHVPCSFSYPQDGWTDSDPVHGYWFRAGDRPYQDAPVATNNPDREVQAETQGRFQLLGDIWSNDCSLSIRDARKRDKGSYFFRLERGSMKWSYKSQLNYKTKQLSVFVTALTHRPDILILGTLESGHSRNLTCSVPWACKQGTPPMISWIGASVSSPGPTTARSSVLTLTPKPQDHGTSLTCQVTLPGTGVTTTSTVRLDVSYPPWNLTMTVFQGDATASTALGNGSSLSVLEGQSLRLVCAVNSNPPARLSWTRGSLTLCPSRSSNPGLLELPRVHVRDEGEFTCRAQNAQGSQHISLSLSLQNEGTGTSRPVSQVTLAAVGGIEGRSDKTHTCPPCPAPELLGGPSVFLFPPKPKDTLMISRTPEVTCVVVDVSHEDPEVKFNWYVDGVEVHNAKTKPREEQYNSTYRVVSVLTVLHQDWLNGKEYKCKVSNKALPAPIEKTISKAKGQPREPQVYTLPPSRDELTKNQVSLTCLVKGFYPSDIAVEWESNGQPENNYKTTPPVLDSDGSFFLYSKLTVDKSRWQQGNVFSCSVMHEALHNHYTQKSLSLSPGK
T4 sequence (Q9NYZ4 17-363): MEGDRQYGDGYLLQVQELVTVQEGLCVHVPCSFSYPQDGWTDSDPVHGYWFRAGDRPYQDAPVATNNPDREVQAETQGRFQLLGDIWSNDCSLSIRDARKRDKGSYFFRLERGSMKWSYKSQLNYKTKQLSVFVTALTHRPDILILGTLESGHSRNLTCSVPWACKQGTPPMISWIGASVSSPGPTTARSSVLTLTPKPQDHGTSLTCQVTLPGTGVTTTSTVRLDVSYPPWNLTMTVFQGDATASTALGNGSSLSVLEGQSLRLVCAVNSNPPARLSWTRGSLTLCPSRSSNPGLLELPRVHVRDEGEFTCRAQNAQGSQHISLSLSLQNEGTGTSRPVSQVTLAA
T3 sequence (Q9NYZ4 17-363): as above
T8 sequence (chain, as listed by the source limits assumed): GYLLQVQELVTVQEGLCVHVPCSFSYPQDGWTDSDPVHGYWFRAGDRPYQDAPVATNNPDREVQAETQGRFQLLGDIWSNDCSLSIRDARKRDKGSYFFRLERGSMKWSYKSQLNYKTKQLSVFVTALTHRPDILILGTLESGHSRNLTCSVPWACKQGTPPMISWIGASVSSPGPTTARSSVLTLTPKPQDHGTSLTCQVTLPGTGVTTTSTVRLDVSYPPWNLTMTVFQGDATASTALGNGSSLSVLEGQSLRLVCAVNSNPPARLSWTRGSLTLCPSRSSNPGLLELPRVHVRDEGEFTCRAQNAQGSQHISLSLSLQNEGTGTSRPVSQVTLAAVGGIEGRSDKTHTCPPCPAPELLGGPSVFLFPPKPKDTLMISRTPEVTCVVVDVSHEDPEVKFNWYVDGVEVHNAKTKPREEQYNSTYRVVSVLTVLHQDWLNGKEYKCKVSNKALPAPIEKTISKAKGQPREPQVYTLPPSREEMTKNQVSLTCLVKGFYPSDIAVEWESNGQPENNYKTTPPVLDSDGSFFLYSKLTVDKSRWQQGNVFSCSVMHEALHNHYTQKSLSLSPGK
T1 sequence (Q9NYZ4 17-499): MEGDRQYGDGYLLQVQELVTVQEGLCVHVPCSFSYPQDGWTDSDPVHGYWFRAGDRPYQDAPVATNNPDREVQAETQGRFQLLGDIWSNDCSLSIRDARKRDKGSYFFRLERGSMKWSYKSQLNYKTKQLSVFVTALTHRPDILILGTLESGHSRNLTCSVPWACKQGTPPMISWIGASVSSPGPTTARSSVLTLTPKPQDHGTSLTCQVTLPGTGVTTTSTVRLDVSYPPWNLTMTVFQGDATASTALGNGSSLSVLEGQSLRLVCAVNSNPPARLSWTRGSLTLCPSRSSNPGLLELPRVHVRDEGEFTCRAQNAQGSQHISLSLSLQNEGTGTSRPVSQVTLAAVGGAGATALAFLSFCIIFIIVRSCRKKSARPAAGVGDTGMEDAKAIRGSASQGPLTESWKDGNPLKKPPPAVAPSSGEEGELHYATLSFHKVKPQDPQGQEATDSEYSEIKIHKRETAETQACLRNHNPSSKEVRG
T5 sequence (chain, as listed by the source limits assumed): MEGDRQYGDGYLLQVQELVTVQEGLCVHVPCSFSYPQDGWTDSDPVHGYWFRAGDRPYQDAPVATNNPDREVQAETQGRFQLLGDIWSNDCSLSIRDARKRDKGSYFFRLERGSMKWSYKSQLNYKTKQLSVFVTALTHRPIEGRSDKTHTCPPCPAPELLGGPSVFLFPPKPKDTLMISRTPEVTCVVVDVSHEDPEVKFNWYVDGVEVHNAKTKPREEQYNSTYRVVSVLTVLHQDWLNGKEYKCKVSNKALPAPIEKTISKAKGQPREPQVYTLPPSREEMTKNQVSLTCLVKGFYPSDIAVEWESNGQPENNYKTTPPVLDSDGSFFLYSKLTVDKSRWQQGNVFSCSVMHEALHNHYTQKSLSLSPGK
T6 sequence (chain, as listed by the source limits assumed): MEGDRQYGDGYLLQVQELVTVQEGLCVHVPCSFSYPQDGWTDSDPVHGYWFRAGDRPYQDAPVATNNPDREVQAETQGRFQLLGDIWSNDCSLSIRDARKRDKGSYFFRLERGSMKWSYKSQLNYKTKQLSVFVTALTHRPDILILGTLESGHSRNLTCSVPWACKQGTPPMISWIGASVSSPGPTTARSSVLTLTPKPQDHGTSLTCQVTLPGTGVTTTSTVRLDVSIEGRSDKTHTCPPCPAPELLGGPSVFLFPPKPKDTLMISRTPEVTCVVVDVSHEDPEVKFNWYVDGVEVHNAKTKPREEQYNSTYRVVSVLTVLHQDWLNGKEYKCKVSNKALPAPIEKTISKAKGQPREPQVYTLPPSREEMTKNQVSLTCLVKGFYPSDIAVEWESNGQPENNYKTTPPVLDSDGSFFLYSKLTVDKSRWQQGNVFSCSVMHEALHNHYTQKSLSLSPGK

B1: mouse 2E2 antibody (antibody, mouse IgG1, kappa)
heavy: QVQLKRASGPGLVAPSQSLSITCTVSGFSLTIYGAHWVRQPPGKGLEWLGVIWAGGSTNYNSALMSRLSISKDNSKSQVFLKINSLQTDDTALYYCARDGSSPYYYSMEYWGQGTSVTVSSAKTTPPSVYPLAPGSAAQTNSMVTLGCLVKGYFPEPVTVTWNSGSLSSGVHTFPAVLESDLYTLSSSVTVPSSPRPSETVTCNVAHPASSTKVDKKIVPRDCGCKPCICTVPEVSSVFIFPPKPKDVLTITLTPKVTCVVVDISKDDPEVQFSWFVDDVEVHTAQTQPREEQFNSTFRSVSELPIMHQDWLNGKEFKCRVNSAAFPAPIEKTISKTKGRPKAPQVYTIPPPKEQMAKDKVSLTCMITDFFPEDITVEWQWNGQPAENYKNTQPIMNTNGSYFVYSKLNVQKSNWEAGNTFTCSVLHEGLHNHHTEKSLSHSPG
light: QIILTQSPAIMSASPGEKVSITCSATSSVSYMHWFQQKPGTSPKLWIYSTSNLASGVPVRFSGSGSGTSYSLTISRMEAEDAATYYCQQRSSYPFTFGSGTKLEIKADAAPTVSIFPPSSEQLTSGGASVVCFLNNFYPKDINVKWKIDGSERQNGVLNSWTDQDSKDSTYSMSSTLTLTKDEYERHNSYTCEATHKTSTSPIVKSFNRNEC
notes: murine IgG1/kappa; also called m2E2; murine 2E2
For B1, the “Mean EC50 (ng/ml) for eosinophil depletion” value [1] was 6.8 ng/mL, the “Mean EC50 (ng/ml) for eosinophil killing (2 donors)” value (“Mean EC50 (ng/ml) … (2 donors)” below) [2] was 6.9 ng/mL and the binding result [3] was “no binding (tested: 1 µg/ml)”. For the same binder, the Kd [4] was 28 pM, the koff [4] was 1.54e-05 s⁻¹ and the kon [4] was 556000 M⁻¹ s⁻¹.

B2: HEKA IgG1 antibody (antibody)
heavy: not shown
light: EIVLTQSPATLSLSPGERATLSCSATSSVSYMHWFQQKPGQAPRLLIYSTSNLASGIPARFSGSGSGTDFTLTISSLEPEDFAVYYCQQRSSYPFTFGPGTKLDIKRTVAAPSVFIFPPSDEQLKSGTASVVCLLNNFYPREAKVQWKVDNALQSGNSQESVTEQDSKDSTYSLSSTLTLSKADYEKHKVYACEVTHQGLSSPVTKSFNRGEC
In the case of B2, the “Mean EC50 (ng/ml) for eosinophil depletion” value [1] is reported as 4.3 ng/mL, the EC50 [5] is reported as 68 pM and 54 pM and 64 pM and 112 pM and the binding result [6] is reported as “binds”. The binding result [7] was “binds”, the binding result [8] was “binds” and the Kd [4] was 17 pM. For the same binder, the koff [4] was 1.11e-05 s⁻¹ and the kon [4] was 638000 M⁻¹ s⁻¹.

B3: HEKF IgG1 antibody (antibody, V domains shown)
VH: EVQLVESGGGLVQPGGSLRLSCAASGFSLTIYGAHWVRQAPGKGLEWVGVIWAGGSTNYNSALMSRFTISKDNSKNTVYLQMNSLRAEDTAVYYCARDGSSPYYYSMEYWGQGTTVTVSS
VL: EIVLTQSPATLSLSPGERATLSCSATSSVSYMHWFQQKPGQAPRLLIYSTSNLASGIPARFSGSGSGTDYTLTISSLEPEDFAVYYCQQRSSYPFTFGPGTKLDIKR
notes: also called HEKF T2
In the case of B3, the “Mean EC50 (ng/ml) for eosinophil depletion” value [1] is reported as 6.7 ng/mL, the EC50 [5] is reported as 64 pM and 74 pM and 52 pM and 97 pM and the Kd [4] is reported as 21 pM. The koff [4] was 1.4e-05 s⁻¹ and the kon [4] was 678000 M⁻¹ s⁻¹.

B4: HEKA IgG4 antibody (antibody)
heavy: not shown
light: B2 light
In the case of B4, the “Mean EC50 (ng/ml) for eosinophil depletion” value [1] is reported as 3.9 ng/mL.

B5: HEKAmut IgG1 antibody (antibody, V domains shown)
VH: B3 VH
VL: EIVLTQSPATLSLSPGERATLSCSATSSVSYMHWFQQKPGQAPRLLIYSTSNLASGIPARFSGSGSGTDFTLTISSLEPEDFAVYYCQQRSSYPYTFGPGTKLDIK
For B5, the “Mean EC50 (ng/ml) for eosinophil depletion” value [1] was 43.3 ng/mL.

B6: HEKFmut (antibody, human IgG1, V domains shown)
VH: B3 VH
VL: B5 VL with F70Y
notes: human IgG1/kappa; also called HEKFmut IgG1
For B6, the “Mean EC50 (ng/ml) for eosinophil depletion” value [1] was 6.9 ng/mL and the EC50 [5] was 72 pM.

B7: murine 4F11 antibody (antibody, mouse IgG1, V domains shown)
VH: QVQLQQSGAELVKPGASVKISCKASGYAFRSSWMNWVKQRPGKGLEWIGQIYPGDDYTNYNGKFKGKVTLTADRSSSTAYMQLSSLTSEDSAVYFCARLGPYGPFADWGQGTLVTVSA
VL: QIVLTQSPAIVSASPGEKVTMTCSASSSVSYMYWYQQRPGSSPRLLIYDTSSLASGVPVRFSGSGSGTSYSLTISRIESEDAANYYCQQWNSDPYTFGGGTKLEIK
notes: murine IgG1 heavy chain and kappa light chain
For B7, the “Mean EC50 (ng/ml) … (2 donors)” value [2] was 5.9 ng/mL, the binding result [9] was “binds” and the binding result [10] was “binds”.

B8: murine 1H10 antibody (antibody, mouse IgG1, V domains shown)
VH: EVQLQQSGAELVRPGASVKLSCTASGFNIKDYYMYWVKQRPEQGLEWIGRIAPEDGDTEYAPKFQGKATVTADTSSNTAYLHLSSLTSEDTAVYYCTTEGNYYGSSILDYWGQGTTLTVSS
VL: DIQMTQTTSSLSASLGDRVTISCRASQDITNYLNWYQQKPDGTVKLLIYFTSRLHSGVPSRFSGSGSGTDYSLTISNLEQEDIATYFCQQGNTLPWTFGGGTKLEIK
notes: as for B7
In the case of B8, the “Mean EC50 (ng/ml) … (2 donors)” value [2] is reported as 41 ng/mL, the binding result [9] is reported as “binds” and the binding result [10] is reported as “binds”.

B9: murine 1C3 antibody (antibody, mouse IgG2a, V domains shown)
VH: EVQVVESGGDLVKSGGSLKLSCAASGFPFSSYAMSWVRQTPDKRLEWVAIISSGGSYTYYSDSVKGRFTISRDNAKNTLYLQMSSLKSEDTAMYYCARHETAQAAWFAYWGQGTLVTVSA
VL: QIVLTQSPAIMSASPGEKVTMTCSASSSVSYMHWYQQKSGTSPKRWIYDTSKLAYGVPARFSGSGSGTSYSLTISSMEAEDAATYYCQQWSSNPPTFGGGTKLEIK
notes: murine IgG2a heavy chain and kappa light chain
B9 was tested, and the “Mean EC50 (ng/ml) … (2 donors)” value [2] was 7.7 ng/mL, the binding result [11] was “no binding (tested: 1 µg/ml)” and the binding result [3] was “no binding (tested: 1 µg/ml)”. B9: binds [7]; binds [8].

B10: HA2KD (antibody, human IgG1, V domains shown)
VH: QVQLQESGPGLVKPSETLSLTCTVSGGSISIYGAHWIRQPPGKGLEWIGVIWAGGSTNYNSALMSRVTISVDTSKNQFSLKLSSVTAADTAVYYCARDGSSPYYYSMEYWGQGTLVTVSS
VL: B5 VL with L46W, Y95F
notes: human IgG1/kappa
B10: no binding [12].

B11: HA2KE (antibody, human IgG1, V domains shown)
VH: B10 VH
VL: B5 VL with I57V, Y95F
notes: human IgG1/kappa
B11: no binding [12].

B12: HA2KG (antibody, human IgG1, V domains shown)
VH: B10 VH
VL: B5 VL with F35Y, Y95F
notes: human IgG1/kappa
B12: no binding [12].

B13: HEKF Fab fragment (Fab)
VH: B3 VH
light: B2 light with F70Y
notes: Fab made by papain digestion
Binder B13 has a Kd [13] of 592 pM, a koff [13] of 0.000545 s⁻¹ and a kon [13] of 920000 M⁻¹ s⁻¹.
